{
  "source": "patent EP4671273A1",
  "about": "(Anaveon AG, dated 2025)",
  "experiment_in_all_cases": "cell-based or functional assay",
  "key": {"[1]": {"target": "T1, human IL-21 receptor (IL-21R) on cells (human, UniProt Q9HBE5 20-538; P31785 23-369)", "T1 sequence (Q9HBE5 20-538, chain 1 of 2)": "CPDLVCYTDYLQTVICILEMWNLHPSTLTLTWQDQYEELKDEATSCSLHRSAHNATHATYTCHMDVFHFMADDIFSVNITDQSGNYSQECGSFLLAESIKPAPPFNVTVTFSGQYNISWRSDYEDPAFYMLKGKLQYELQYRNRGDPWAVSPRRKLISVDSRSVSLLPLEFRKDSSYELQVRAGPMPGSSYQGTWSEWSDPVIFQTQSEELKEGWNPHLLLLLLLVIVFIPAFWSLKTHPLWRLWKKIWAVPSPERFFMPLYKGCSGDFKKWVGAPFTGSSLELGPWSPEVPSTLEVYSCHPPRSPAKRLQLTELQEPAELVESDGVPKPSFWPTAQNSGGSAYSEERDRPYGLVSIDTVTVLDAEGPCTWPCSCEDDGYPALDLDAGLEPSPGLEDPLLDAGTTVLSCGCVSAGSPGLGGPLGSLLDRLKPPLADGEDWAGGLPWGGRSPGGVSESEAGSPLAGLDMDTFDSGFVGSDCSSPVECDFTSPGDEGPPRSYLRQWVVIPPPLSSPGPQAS", "T1 sequence (P31785 23-369, chain 2 of 2)": "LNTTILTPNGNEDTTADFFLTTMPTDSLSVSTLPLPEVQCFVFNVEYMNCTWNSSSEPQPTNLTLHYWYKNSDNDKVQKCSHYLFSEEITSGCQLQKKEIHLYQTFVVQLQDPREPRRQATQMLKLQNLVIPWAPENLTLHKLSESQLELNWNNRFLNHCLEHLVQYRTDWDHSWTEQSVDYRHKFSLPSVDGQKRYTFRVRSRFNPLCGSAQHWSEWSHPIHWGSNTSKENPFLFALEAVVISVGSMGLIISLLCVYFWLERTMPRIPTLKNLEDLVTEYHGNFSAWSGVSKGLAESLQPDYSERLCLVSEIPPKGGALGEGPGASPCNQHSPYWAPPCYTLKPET"}, "[2]": {"target": "T1, human IL-21 receptor (IL-21R) on cells", "remark": "listed apart in the source"}, "[3]": {"target": "T1, human IL-21 receptor (IL-21R) on cells", "remark": "listed apart in the source"}, "[4]": {"target": "T1, human IL-21 receptor (IL-21R) on cells", "remark": "listed apart in the source"}},
  "note": "Read-outs that look alike come from different tables or passages of the source.",
  "data": [
    {"binder": "PAP722 (bispecific antibody, human IgG1, kappa, lambda, L234A L235A) heavy 1: EVQLLESGGGLVQPGGSLRLSCAASGFTFSINAMTWVRQAPGKGLEWVSTISGSGFSTYYADSLKGRFTISRDNSKNTLYLQMNSLRAEDTAVYYCAKEVYGDYWGQGTLVTVSSASTKGPSVFPLAPSSKSTSGGTAALGCLVKDYFPEPVTVSWNSGALTSGVHTFPAVLQSSGLYSLSSVVTVPSSSLGTQTYICNVNHKPSNTKVDKRVEPKSCDKTHTCPPCPAPEAAGGPSVFLFPPKPKDTLMISRTPEVTCVVVDVSHEDPEVKFNWYVDGVEVHNAKTKPREEQYNSTYRVVSVLTVLHQDWLNGKEYKCKVSNKALAAPIEKTISKAKGQPREPQVCTLPPSREEMTKNQVSLSCAVKGFYPSDIAVEWESNGQPENNYKTTPPVLDSDGSFFLVSKLTVDKSRWQQGNVFSCSVMHEALHNHYTQKSLSLSPGK light 1: not shown heavy 2: QVQLQESGPGLVKPSETLSLTCTVSGGSISSDYWGWIRQPPGKGLEWIGYISSRGSTNYNPSLKRRVTISVDTSRNQFSLKLSSVTAADTAVYYCARSAGVADFDFWGQGTLVTVSSASTKGPSVFPLAPSSKSTSGGTAALGCLVKDYFPEPVTVSWNSGALTSGVHTFPAVLQSSGLYSLSSVVTVPSSSLGTQTYICNVNHKPSNTKVDKRVEPKSCDKTHTCPPCPAPEAAGGPSVFLFPPKPKDTLMISRTPEVTCVVVDVSHEDPEVKFNWYVDGVEVHNAKTKPREEQYNSTYRVVSVLTVLHQDWLNGKEYKCKVSNKALAAPIEKTISKAKGQPREPQVYTLPPCREEMTKNQVSLWCLVKGFYPSDIAVEWESNGQPENNYKTTPPVLDSDGSFFLYSKLTVDKSRWQQGNVFSCSVMHEALHNHYTQKSLSLSPGK light 2: not shown", "values": [
      {"measurement": "EC50B, pSTAT3+ Jurkat PD-1 cells, PD-1 blocked", "setting": "[1]", "result": 1.97, "unit": "nM"},
      {"measurement": "EC50NB, pSTAT3+ Jurkat PD-1 cells", "setting": "[1]", "result": 0.019, "unit": "nM"},
      {"measurement": "Δ", "setting": "[2]", "result": 4.3}
    ]},
    {"binder": "YWW798 (bispecific antibody, human IgG1, kappa, lambda, L234A L235A) heavy 1: EVQLLESGGGLVQPGGSLRLSCAASGFTFSINAMTWVRQAPGKGLEWVSTISGSGFSTYYADSLKGRFTISRDNSKNTLYLQMNSLRAEDTAVYYCAKEVYGDYWGQGTLVTVSSASTKGPSVFPLAPSSKSTSGGTAALGCLVKDYFPEPVTVSWNSGALTSGVHTFPAVLQSSGLYSLSSVVTVPSSSLGTQTYICNVNHKPSNTKVDKRVEPKSCDKTHTCPPCPAPEAAGGPSVFLFPPKPKDTLMISRTPEVTCVVVDVSHEDPEVKFNWYVDGVEVHNAKTKPREEQYNSTYRVVSVLTVLHQDWLNGKEYKCKVSNKALAAPIEKTISKAKGQPREPQVCTLPPSREEMTKNQVSLSCAVKGFYPSDIAVEWESNGQPENNYKTTPPVLDSDGSFFLVSKLTVDKSRWQQGNVFSCSVMHEALHNHYTQKSLSLSPGK light 1: not shown heavy 2: QVQLQESGPGLVKPSETLSLTCTVSGGSISSDYWGWIRQPPGKGLEWIGYISYSGSTNYNPSLKSRVTISVDTSRNQFSLKLSSVTAADTAVYYCARSAGVTDFDAWGQGTLVTVSSASTKGPSVFPLAPSSKSTSGGTAALGCLVKDYFPEPVTVSWNSGALTSGVHTFPAVLQSSGLYSLSSVVTVPSSSLGTQTYICNVNHKPSNTKVDKRVEPKSCDKTHTCPPCPAPEAAGGPSVFLFPPKPKDTLMISRTPEVTCVVVDVSHEDPEVKFNWYVDGVEVHNAKTKPREEQYNSTYRVVSVLTVLHQDWLNGKEYKCKVSNKALAAPIEKTISKAKGQPREPQVYTLPPCREEMTKNQVSLWCLVKGFYPSDIAVEWESNGQPENNYKTTPPVLDSDGSFFLYSKLTVDKSRWQQGNVFSCSVMHEALHNHYTQKSLSLSPGK light 2: not shown", "values": [
      {"measurement": "EC50B, pSTAT3+ Jurkat PD-1 cells, PD-1 blocked", "setting": "[3]", "result": 0.526, "unit": "nM"},
      {"measurement": "EC50NB, pSTAT3+ Jurkat PD-1 cells", "setting": "[3]", "result": 0.004, "unit": "nM"},
      {"measurement": "Δ", "setting": "[2]", "result": 3.45}
    ]},
    {"binder": "DMT806 (bispecific antibody, human IgG1, kappa, lambda, L234A L235A) heavy 1: EVQLLESGGGLVQPGGSLRLSCAASGFTFSINAMTWVRQAPGKGLEWVSTISGSGFSTYYADSLKGRFTISRDNSKNTLYLQMNSLRAEDTAVYYCAKEVYGDYWGQGTLVTVSSASTKGPSVFPLAPSSKSTSGGTAALGCLVKDYFPEPVTVSWNSGALTSGVHTFPAVLQSSGLYSLSSVVTVPSSSLGTQTYICNVNHKPSNTKVDKRVEPKSCDKTHTCPPCPAPEAAGGPSVFLFPPKPKDTLMISRTPEVTCVVVDVSHEDPEVKFNWYVDGVEVHNAKTKPREEQYNSTYRVVSVLTVLHQDWLNGKEYKCKVSNKALAAPIEKTISKAKGQPREPQVCTLPPSREEMTKNQVSLSCAVKGFYPSDIAVEWESNGQPENNYKTTPPVLDSDGSFFLVSKLTVDKSRWQQGNVFSCSVMHEALHNHYTQKSLSLSPGK light 1: not shown heavy 2: not shown light 2: DIQMTQSPSSVSASVGDRVTITCRASQGISSWLAWYQHKPGKAPKLLIYVASSLQSGVPSRFSGSGSGTDFTLTISSLQPEDFATYYCQQANSFPLTFGGGTKVEIKRTVAAPSVFIFPPSDEQLKSGTASVVCLLNNFYPREAKVQWKVDNALQSGNSQESVTEQDSKDSTYSLSSTLTLSKADYEKHKVYACEVTHQGLSSPVTKSFNRGEC", "values": [
      {"measurement": "EC50B, pSTAT3+ Jurkat PD-1 cells, PD-1 blocked", "setting": "[4]", "result": 12.4, "unit": "nM"},
      {"measurement": "EC50NB, pSTAT3+ Jurkat PD-1 cells", "setting": "[4]", "result": 0.17, "unit": "nM"},
      {"measurement": "Δ", "setting": "[2]", "result": 2.79}
    ]},
    {"binder": "YCV364 (bispecific antibody, human IgG1, kappa, lambda, L234A L235A) heavy 1: EVQLLESGGGLVQPGGSLRLSCAASGFTFSINAMTWVRQAPGKGLEWVSTISGSGFSTYYADSLKGRFTISRDNSKNTLYLQMNSLRAEDTAVYYCAKEVYGDYWGQGTLVTVSSASTKGPSVFPLAPSSKSTSGGTAALGCLVKDYFPEPVTVSWNSGALTSGVHTFPAVLQSSGLYSLSSVVTVPSSSLGTQTYICNVNHKPSNTKVDKRVEPKSCDKTHTCPPCPAPEAAGGPSVFLFPPKPKDTLMISRTPEVTCVVVDVSHEDPEVKFNWYVDGVEVHNAKTKPREEQYNSTYRVVSVLTVLHQDWLNGKEYKCKVSNKALAAPIEKTISKAKGQPREPQVCTLPPSREEMTKNQVSLSCAVKGFYPSDIAVEWESNGQPENNYKTTPPVLDSDGSFFLVSKLTVDKSRWQQGNVFSCSVMHEALHNHYTQKSLSLSPGK light 1: not shown heavy 2: QVQLQESGPGLVKPSETLSLTCTVSGGSISSDFWGWIRQPPGKGLEWIGYISSRGSTNYNPSLKRRVTISVDTSRNQFSLKLSSVTAADTAVYYCARSAGVADFDFWGQGTLVTVSSASTKGPSVFPLAPSSKSTSGGTAALGCLVKDYFPEPVTVSWNSGALTSGVHTFPAVLQSSGLYSLSSVVTVPSSSLGTQTYICNVNHKPSNTKVDKRVEPKSCDKTHTCPPCPAPEAAGGPSVFLFPPKPKDTLMISRTPEVTCVVVDVSHEDPEVKFNWYVDGVEVHNAKTKPREEQYNSTYRVVSVLTVLHQDWLNGKEYKCKVSNKALAAPIEKTISKAKGQPREPQVYTLPPCREEMTKNQVSLWCLVKGFYPSDIAVEWESNGQPENNYKTTPPVLDSDGSFFLYSKLTVDKSRWQQGNVFSCSVMHEALHNHYTQKSLSLSPGK light 2: not shown", "values": [
      {"measurement": "EC50B, pSTAT3+ Jurkat PD-1 cells, PD-1 blocked", "setting": "[1]", "result": 1.33, "unit": "nM"},
      {"measurement": "EC50NB, pSTAT3+ Jurkat PD-1 cells", "setting": "[1]", "result": 0.009, "unit": "nM"},
      {"measurement": "Δ", "setting": "[2]", "result": 4.21}
    ]}
  ]
}
